Measured values: patent US20250340623A1

What was measured:
Conditions in all cases: remark: other sources report otherwise
[1] = molecular target: monomeric alpha-synuclein, P37840; assay: SPR, captured mAb
[2] = molecular target: alpha-synuclein fibrils, P37840; assay: SPR, captured mAb
[3] = molecular target: monomeric alpha-synuclein, P37840; assay: SPR, captured mAb; alpha-synuclein monomers
[4] = molecular target: alpha-synuclein fibrils, P37840; assay: SPR, captured mAb; alpha-synuclein fibrils

Binder | Kd [1] [nM] | koff [1] [s⁻¹] | kon [1] [M⁻¹ s⁻¹] | Kd [2] [nM] | koff [2] [s⁻¹] | kon [2] [M⁻¹ s⁻¹] | Kd [3] [nM] | Kd [4] [nM]
ACI-7067-1108B11-Ab2 (antibody, V domains shown) VH: EVQLVESGGGLVQPKGSLKLSCAASGFTFNTYAMHWVRQAPGKGLEWVARIRSKGSNYATNYADSVKDRFTISRDDSQSMLYLQMNNLKTEDTAMYYCVRGHGSSYFSYWGQGTLVTVSA VL: QIVLTQSPAIMSASPGERITMTCSANSSVTYMHWYQQKSGTSPKRWIYDTSNLASGVPARFSGSGSGTSYSLTISSMEAEDAATYYCQQWKSHPPTFGAGTKLELK | 8.1 | 0.00154 | 191000 | 18.6 | 0.00205 | 251000 | – | –
ACI-7067-1116F2-Ab1 (antibody, V domains shown) VH: DVQLQESGPGFVKPSQSLSLTCSVTGYSITRGFYWNWIRQFPGNKLEWMGYISDDGNSNYNPSLKNRISITRDTFKNQVFLRLNSVTTEDTATYYCTRGDLLWGQGTTLTVSS VL: not shown | 4.9 | 0.000232 | 47000 | 55.1 | 0.000458 | 8300 | – | –
ACI-8033-4F3-Ab1 (antibody, V domains shown) VH: EVQLQQSGPELVKPGASVKISCKASGYTFTDYYMNWVKQSHGKSLEWIGDINPNTGTNSYNQKFKGRASLTVDKFSSAAYMELRSLTSEDSAVYYCARTGYGDPISSYYYALDYWGQGTSVTVSS VL: DIVMSQSPSSLAVSAGEKVTMSCKSSQSLLNSRTRKNYLAWYQQKPGQSPKLLIYWASTRESGVPDRFTGSGSGTDFTLTISSVQAEDLAVYYCKQSYNLWTFGGGTKLEIK | 1.7 | 0.00016 | 97000 | 0.05 | 2.24e-07 | 4500 | – | –
ACI-8033-17F5-Ab1 (antibody, V domains shown) VH: EVQLQQSGPELVKPGASVKISCKASGYTFTDYFMNWVKQSHGKSLEWIGDINPNIDVTNYNQKFKGKATLTVDKSSSTAYMELRSLTSEDSAVYYCARGRDYAMDFWGQGTSVTVSS VL: DIVMSQSPSSLAVSAGEKVTMSCKSSQSLLNSRTRKNYLAWYQQKPGQSPKLLIYWASTRESGVPDRFTGSGSGTDFTLTISSVQAEDLAVYYCKQSYDLWTFGGGTKLEIK | 2.4 | 0.000232 | 96600 | 8.7 | 0.00012 | 13700 | – | –
ACI-7089-4418F6-Ab1 (antibody, V domains shown) VH: QVQLQQSGAELARPGASVKVSCKASGYTFTSSGISWLKHRTGQGLEWIGDIYPRSGNTYYNEKFKDKATLTADKSSSTAYMELRSLTSEDSAVYFCSSGNYWGQGTTLTVSS VL: DIVITQDDLSNPVTSGESVSISCRSSKSLLYKDGKTYLNWFLQRPGQSPQLLIYLMSTRASGVSDRFSGSGSGTDFTLEISRVKAEDVGVYYCQQLLEYPLTFGAGTKLELK | 0.1 | 9.25e-06 | 81800 | 0.04 | 1.14e-05 | 272000 | – | –
ACI-7079-2501B11-Ab3 (antibody, V domains shown) VH: QVQLQQSGPELVKPGASVKISCKASGYAFSSFWMNWMKQRPGKGLEWIGRIYPGDGDAHYNGEFKGRATLTADKSSSTAYMQLSSLTSEDSAVYFCARKGDFYGSNYDYWGQGTTLTVSS VL: QAVVTQESALTTSPGETVTLTCRSSTGAVTTSNYANWVQEKPDHLFTGLIGGTNNRAPGVPARFSGSLIGDKAALTITGAQTEDEAIYFCALWYSNHLVFGGGTRLTVL | 2.4 | 0.000335 | 141000 | 31.8 | 0.000347 | 10900 | – | –
ACI-7089-4409F1-Ab1 (antibody, V domains shown) VH: DVQLQESGPGLVKPSQSLSLTCSVTGYSITRGYYWNWIRQFPGNKLEWMGYISYDGSNNYNPSLRNRISITRDTSKNQFFLKLKSVTTEDTATYFCARGDSNWGQGTTLTVSA VL: not shown | 6.4 | 0.000992 | 154000 | 8.8 | 0.00587 | 667000 | – | –
ACI-8033-1F8-Ab1 (antibody, V domains shown) VH: DVQLQESGPGLVKPSQSLSLTCSVTGYSITSGFYWNWIRQFPGNKLEWMGYISYDGSNNYNPSLKNRISIIRDTSKNQFFLKLKSVTSEDTATYYCVRGDVDWGQGTTLTVSS VL: not shown | 24.3 | 0.000738 | 30400 | 1010 | 0.000996 | 983 | – | –
ACI-7079-2503C6-Ab1 (antibody, V domains shown) VH: DVQLQESGPGLVKPSQSLSLTCSVTGYSITSGYYWNWIRLFPGNKLEWLGYINYDGSNNFNPSLKNRISITRDTSKNQFFLKLNSVTSEDTATYFCLRGDWDWGQGTLVTVSA VL: not shown | – | 0.00012 | 40500 | – | – | – | 3 | –
ACI-7067-1111B12-Ab2 (antibody, V domains shown) VH: QVQLLQPGTALVMPGASVKLSCKASGYTFTTYWMHWVKQRPGQGLEWIGNINPINGGSNYNEKFKSKASLTVDKSSSTAYMQLSSLTSEDSAVYYCVIAMDYWGQGTSVTVSS VL: DIQMTQSPSSLSASLGERVSLTCRASQDIGISLNWFQQEPDGTIKRLIYATSSLDSGVPKRFSGNRSGSDYSLTISSLESEDFADYYCLQFASSPLTFGAGTKLELK | 8.1 | 0.0014 | 172000 | 39.2 | 0.00101 | 26300 | – | –
ACI-7067-1113D10-Ab1 (antibody, V domains shown) VH: EVQLVESGGGLVQPKGSLKLSCAASGFTFNTYALHWVRQAPGKGLEWVARIRSKSSNYATYYADSVKDRFTISRDDSQSMLYLQMNNLKTEDTGMYYCVRGGVSPFDYWGQGTTLTVSS VL: QIVLTQSPAIMSASPGEKVTMTCSASSSVSYMHWYQQKSGTSPKRWIYDTSKLASGVPARFSGSGSGTSYSLTISSMEAEDSATYYCQQWSNNPPTFGGGTKLEIK | – | – | – | – | 4.16e-07 | 6940 | – | 0.06
ACI-7079-2501D10-Ab1 (antibody, V domains shown) VH: EVQLVESGGGLVQPKGSLKVSCAASGFTFKTYAMHWVRQAPGKGLEWVARIRSENSNFAKYYADSVKDRFTISRDDSQSMLYLQMNNLKTEDTAMYYCVRGYNGSSLDYWGQGTTLTVSS VL: QIVLTQSPAIMSAFPGERVTMTCSASSSVNYMHWYQQKSGTSPKRWIYDTSKLASGVPARFSGGGSGTSYSLTISNMEAEDAATYYCQQWRSNPPTFGGGTKLEIK | 1.6 | 0.00043 | 264000 | 24.7 | 0.000427 | 17300 | – | –
ACI-7067-1108H1-Ab1 (antibody, V domains shown) VH: EVKLVESGGGLVQPGGSMKLSCTASGFTFSDAWMNWVRQSPEKGLEWVAEIRNKAHNHATNYAESVKGRFTISGDDSKSSVYLQMNNLRAEDTGIYYCTIYSFWGQGTLVTVSA VL: SIVMTQTPKFLLVSAGDRVTITCKASQSVTNYVAWYHQKPGQSPKLLIYSASNRYSGVPDRFTGSGYGTDFTFTINTVQTEDLAVYFCQQDYRIPYTFGGGTKLEIK | 4.4 | 0.000565 | 131000 | 14.3 | 0.00118 | 271000 | – | –
ACI-7067-1112H8-Ab2 (antibody, V domains shown) VH: EVKLEESGGGLVQPGGSMKLSCAASGFTFTDAWMNWVRQSPEKGLEWIAEIRNKAHNYATYYAESVKGRFDISGDDSKSSVYLQMNNLRVEDTGIYYCTIYSYWGPGTLVTVSA VL: SIVMTQTPKFLLMSPGDRVTMTCTASQSVSNYVAWYQQKPGQSPKLLIYSASNRFTGVPDRFTGSGYGTDFTFTINTVQTEDMAVYFCQQDYTSPYTFGGGTKLEIK | 6.3 | 0.00158 | 250000 | 18.7 | 0.00245 | 285000 | – | –
ACI-8033-19A2-Ab1 (antibody, V domains shown) VH: EVQLVESGGGLVQPKGSLKLSCAASGFSFNTYAMNWVRQAPGKGLEWVARIRSKSNNYATYYVDSVKDRFTISRDDSESMLYLQMNNLKTEDTALYYCVSESAYWGQGTLVTVSA VL: DVVMTQTPLSLPVSLGDQASISCRSSQSLVHSNGNTYLYWYLQKPGQSPKLLIYKVSNRLSGVPDRFSGSGSGTDFTLKISRVEAEDLGVYFCSQSTHVPFTFGSGTKLEIK | 6.2 | 0.0828 | 1.33e+07 | 6.7 | 0.000119 | 17700 | – | –
ACI-8033-1A12-Ab1 (antibody, V domains shown) VH: QVHLKQSGADLVRPGASVKLSCKASGYSFTDFYINWVKQTPGQGLEWIARIYPGNNNTFYNEKFKGKATLSAEKSSTTAYMQLSSLTSEDSAVYFCVVGYYGAWGQGTTLTVSS VL: DVVMTQTPLSLPVSLGDQASISCRSSQSLVHSNGNTHLHWYLQKPGQSPKLLIYKVSNRFSGVPDRFSGSGSGTDFTLKISRVEAEDLGFYFCSQSTHVPWTFGGGTKLEIK | 31.9 | 0.0327 | 1.02e+06 | 9.8 | 6.53e-05 | 6660 | – | –
ACI-8033-18C11-Ab1 (antibody, V domains shown) VH: QVQLQQPGAELVKPGASVKMSCKAAGYTFSSYWITWVRQRPGQGLDWIGDIYPGGGVTNYNEKFKTKATLTVDTSSSTAYMQLSSLTSEDSAVYYCATAQTTFAYWGQGTLVTVSA VL: DVLMTQTPLSLPVSLGDQASISCRSSQNIVHNNGNTYLEWYLQKPGQSPKLLIYKVSNRFSGVPDRFSGSGSGTDFTLKISRVEAEDLGVYYCFQGSHVPRTFGGGTKLEIK | 1.8 | 0.000263 | 143000 | 30.4 | 0.000251 | 8270 | – | –
ACI-8033-18D12-Ab1 (antibody, V domains shown) VH: QVQLQQPGAELVKPGASVKMSCKASGYTFTSYWITWVRQRPGQGLDWIGDIYPGGGVTNYNEKFKTKATLTVDTSSSTAYMHLSSLTSEDSAVYFCATAQTTFAHWGQGTLVTVSA VL: DVLMTQTPLSLPVSLGDQASISCRSSQNIAHNNGNTYLEWYLQKPGQSPKLLIYKVSNRFSGVPDRFSGSGSGTDFTLKISRVEAEDLGVYYCFQGSHVPRTFGGGTKLEIK | – | 0.26 | 8.25e+07 | – | – | – | 3.2 | –
ACI-7079-2501G2-Ab2 (antibody, V domains shown) VH: EVQLVESGGGLVQPKGSLKLSCAASGFNFNTYAMNWVRQAPGKGLEWVARIRTKSNNFATYYAHSVKDRFTISRDDSESMLYLQMNNLKTEDTAMYYCVRQGLAYYAMDYWGQGTSVTVSS VL: DVLMTQTPLSLPVSLGDQVSISCRSSQTIVHSNGNTYLEWYLQKPGQSPKLLIYKVSNRFSGVPDRFSGSGSGTDFTLKISRVEAEDLGVYYCFQGSQGPLTFGAGTKLELK | 2.9 | 0.00084 | 291000 | 27.8 | 0.000528 | 19000 | – | –
